167 variants from the RNAGym collection of RNA variant scans (doi:10.7554/elife.80360) can be followed below.

To fix the notation:
B1: Hairpin Ribozyme (parent)
chain: GUCCUCUUUCACGUGCGCGUGAAAGAGAGAAGUGAACCAGAGAAACACACGUUGUGGUAUAUUACCUGGUA

The variants in the data set derive from B1. The data set can be described thus: self-cleavage, relative activity (ratio to wild type); higher = more cleavage; co-transcriptional.
Regarding G25C C50A, the self-cleavage was found to be 0.214. For G25A A36U, the self-cleavage was found to be 0.363. For the variant A26G A61C, the self-cleavage is 0.173. G25C G32A: the self-cleavage came out at 0.0816. The result for G25C G32U reads 0.0809. Regarding A26C U70G, the self-cleavage was found to be 0.509.

On to A26G A28C, for which the self-cleavage is 0.358. With A26G A28U, the self-cleavage was 0.491. With A26C C66U, the self-cleavage stood at 0.315.

In the case of G25U U60C, the self-cleavage came out at 0.885. The result for G25U U60G reads 0.288; that for G25C C66G, 0.217.

For G25U C65U, the self-cleavage stood at 0.188. Consider G25U C65A, for which the self-cleavage was found to be 0.735. The result for G25U C65G reads 0.211.

As to A24U A64G, the self-cleavage worked out at 0.492. For the variant A24U G69C, the self-cleavage came out at 0.271. On to A24G G56A, for which the self-cleavage is 0.187. Take G25A A64C: the self-cleavage stood at 0.23.

Take G25A A64U: the self-cleavage is 0.173. For A26U G27C, the self-cleavage turned out to be 0.177. As for A24U A45U, the self-cleavage was found to be 0.159. On to G25A U58C, for which the self-cleavage amounted to 0.581. The same measure for A26U A49U: 0.0963; for A26U A49G: 0.41; for G25C G51A: 0.591. Take A26C A43C: the self-cleavage turned out to be 0.159. The result for A26G U60G reads 0.717. With A26G A59U, the self-cleavage worked out at 0.233. G25C A28C: the self-cleavage came to 0.214.

As to G25A A41G, the self-cleavage was 0.494. The same measure for A26C C37A: 0.156. In the case of A26C C37G, the self-cleavage amounted to 0.373. For the variant G25C U67A, the self-cleavage came out at 0.136. G25C U67G: the self-cleavage turned out to be 0.152. With G25U U62C, the self-cleavage stood at 0.123. Regarding A26G C46G, the self-cleavage was determined as 0.19.

With A24U A43U, the self-cleavage is 0.121. On to A26U C38U, for which the self-cleavage is 0.409.

Take A26U C38G: the self-cleavage was determined as 0.109.

With G25A C50G, the self-cleavage stood at 0.14. With A26U A45G, the self-cleavage turned out to be 0.168. Turning to A26U A45U, the self-cleavage amounted to 0.245. Regarding A26C A44U, the self-cleavage was determined as 0.193. For G25U U70G, the self-cleavage worked out at 0.613. In the case of G25U U70C, the self-cleavage was 0.679. G25U U70A: the self-cleavage was 0.432.

Take G25A A47C: the self-cleavage turned out to be 0.107.

Take A26G U58G: the self-cleavage is 0.693.

In the case of A26G U58A, the self-cleavage was determined as 0.755. For the variant A24G G27C, the self-cleavage worked out at 0.171. G25A G42A: the self-cleavage turned out to be 0.0699.

Consider G25C A39C, for which the self-cleavage came to 0.324. For G25C A39U, the self-cleavage stood at 0.262. The same measure for A24G U67A: 0.204. As for A24G U55C, the self-cleavage was found to be 0.196. In the case of A24G U55A, the self-cleavage stood at 0.272.

With G25U C48U, the self-cleavage came to 0.163. Take G25U C48A: the self-cleavage turned out to be 0.143. Regarding A24U A39C, the self-cleavage is 0.5.

For G25U A41C, the self-cleavage was 0.953. Regarding G25U A41G, the self-cleavage was found to be 0.611. Turning to G25C A49G, the self-cleavage was determined as 0.255.

For G25C A49U, the self-cleavage was 0.21. Take G25A G68A: the self-cleavage is 0.164.

Take G25A G68U: the self-cleavage turned out to be 0.152. The same measure for A26G A71C: 1.55; for A26C G68C: 0.147. On to G25U U67A, for which the self-cleavage was found to be 0.145. In the case of A26C C48U, the self-cleavage was determined as 0.173. The same measure for A26C C48A: 0.045. Take G25U A35C: the self-cleavage is 0.691. Take A26G A41U: the self-cleavage turned out to be 1.24.

With A26G A41G, the self-cleavage came out at 1.13.

In the case of A26G A49C, the self-cleavage was found to be 0.148.

Take A26G A49U: the self-cleavage worked out at 0.288. As to A26U A39C, the self-cleavage amounted to 0.225.

On to A26U A39G, for which the self-cleavage was determined as 0.207.

Turning to G25C A26G, the self-cleavage was 0.254.

For the variant G25A C46U, the self-cleavage stood at 0.116. In the case of A26C A28G, the self-cleavage was 0.785.

In the case of A24U A47G, the self-cleavage is 0.164.

For the variant A24U A47C, the self-cleavage turned out to be 0.3. The result for A26G G27C reads 0.215. Turning to A24U A31C, the self-cleavage is 0.163.

On to A24U A41G, for which the self-cleavage stood at 0.71.

As to A26U C50U, the self-cleavage was determined as 0.261. With A26C A59U, the self-cleavage is 0.245. G25U A30U: the self-cleavage was determined as 0.0827. The same measure for G25U A30G: 0.124; for G25A A35C: 0.738.

In the case of G25A G51C, the self-cleavage is 0.479. With G25C A45U, the self-cleavage came out at 0.205.

In the case of G25C A45G, the self-cleavage was determined as 0.0878.

In the case of G25C A45C, the self-cleavage amounted to 0.123.

Consider G25A G40U, for which the self-cleavage amounted to 0.153.

With G25C G68A, the self-cleavage is 0.192. Turning to A26U C46G, the self-cleavage was determined as 0.317. G25A A49U: the self-cleavage is 0.209. As for A26U C65A, the self-cleavage turned out to be 0.701.

Take A26U C65U: the self-cleavage stood at 0.161. Consider G25C A59C, for which the self-cleavage stood at 0.232. The result for G25C A59U reads 0.134; that for A26C A64U, 0.158.

As to A26C A64G, the self-cleavage was 0.539.

For A24G G40C, the self-cleavage amounted to 0.188.

Take A24G G40A: the self-cleavage was determined as 0.338. In the case of G25A G34U, the self-cleavage was found to be 1.11. With G25A G34A, the self-cleavage amounted to 0.715. Consider A26U A44U, for which the self-cleavage stood at 0.141. For A26U A44C, the self-cleavage stood at 0.0769. For A26U A44G, the self-cleavage turned out to be 0.288.

Turning to A24U U53A, the self-cleavage stood at 1.03.

As for A24U U53C, the self-cleavage was 0.885.

On to A26G G51A, for which the self-cleavage is 0.938. As to A26G G51U, the self-cleavage was 0.9. Take A26G G51C: the self-cleavage worked out at 0.78. For G25C U53C, the self-cleavage came to 0.417. Take A24U: the self-cleavage was 0.868. Take G25A U63G: the self-cleavage came to 0.173.

For the variant A24U U62G, the self-cleavage stood at 0.131. The same measure for G25C G27A: 0.213; for G25U: 0.65; for G25C: 0.563. As for G25A, the self-cleavage came out at 0.634. For G25C U60C, the self-cleavage stood at 0.673. Regarding A26G U33A, the self-cleavage was 0.135. G25U G57A: the self-cleavage is 0.145. The same measure for G25U C38G: 0.0734; for A26C G57U: 0.32; for G25A A45U: 0.111. The same measure for A26U C37G: 0.185; for A26U C37A: 0.243. As to G25U C46U, the self-cleavage stood at 0.157. Turning to G25U C46A, the self-cleavage was determined as 0.205. The result for G25C G40A reads 0.0978; that for A24U G27A, 0.334. Consider A24G U52A, for which the self-cleavage was determined as 1.12. The result for G25A G57A reads 0.205. The result for G25U U33G reads 0.168; that for A26C U60A, 0.659; that for G25C C38G, 0.15. As for G25A C65G, the self-cleavage was found to be 0.215. Regarding G25A C65A, the self-cleavage was 0.615. For G25A G69C, the self-cleavage came to 0.228. For A26U A30U, the self-cleavage came to 0.11. Take A24G U60C: the self-cleavage worked out at 0.936.

G25A U70C: the self-cleavage worked out at 0.588.

With A24U C48U, the self-cleavage worked out at 0.252. The same measure for A26C G34C: 1.47; for G25A A30U: 0.234; for G25A A30G: 0.188. In the case of A26U G40C, the self-cleavage is 0.0803.

Turning to A24U A28C, the self-cleavage is 0.449. Turning to G25U A44G, the self-cleavage came out at 0.165. On to G25U A44U, for which the self-cleavage came to 0.113. For the variant G25U A44C, the self-cleavage is 0.229. As for G25C A31U, the self-cleavage came to 0.143.

For G25C A31C, the self-cleavage was 0.168.

Regarding G25U A71G, the self-cleavage is 0.654. As for G25A G32C, the self-cleavage came to 0.0951.

Turning to A26G U63G, the self-cleavage was 0.183. The result for G25U C50A reads 0.283; that for G25C G69A, 0.149. Consider A24U A59G, for which the self-cleavage is 0.183. Regarding G25A U33C, the self-cleavage worked out at 0.0884.

On to G25A U33A, for which the self-cleavage worked out at 0.235.
